Data reported in US20130071374A1 (UNIVERSITY OF MEDICINE AND DENTISTRY OF NEW JERSEY, published 2013).

How the values were obtained:
MazF(His)6 = MazF(His)6 (Escherichia coli, UniProt P0AE70 1-111); assay: tricine SDS-PAGE of the purified complex, densitometry
MazF = molecular target: T1, MazF (Escherichia coli, UniProt P0AE70 1-111); assay: native PAGE, second dimension SDS-PAGE, densitometry
T1 sequence: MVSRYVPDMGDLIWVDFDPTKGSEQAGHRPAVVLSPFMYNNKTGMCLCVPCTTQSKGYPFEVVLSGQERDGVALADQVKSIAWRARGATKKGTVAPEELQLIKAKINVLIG

PemK(His)6 = molecular target: T2, PemK(His)6 (E. coli (plasmid R100), UniProt P13976 24-133); assay: co-purification on Ni-NTA after co-expression
T2 construct: also called Kid

B1: MazE (other)
chain: MIHSSVKRWGNSPAVRIPATLMQALNLNIDDEVKIDLVDGKLIIEPVRKEPVFTLAELVNDITPENLHENIDWGEPKDKEVW
notes: also called antitoxin MazE; ChpAI
MazF(His)6
  ratio of MazF(His)6 to MazE in the complex: ~2

B2: (His)6MazE (other)
chain: MIHSSVKRWGNSPAVRIPATLMQALNLNIDDEVKIDLVDGKLIIEPVRKEPVFTLAELVNDITPENLHENIDWGEPKDKEVW
notes: also called wild-type (His)6MazE; MazE with N-terminal (His)6 tag
MazF
  ratio of MazF to (His)6MazE in the complex: ~1.8

B3: PemI (other)
chain: MHTTRLKRVGGSVMLTVPPALLNALSLGTDNEVGMVIDNGRLIVEPYRRPQYSLAELLAQCDPNAEISAEEREWLDAPATGQEEI
PemK(His)6
  binding result: binds
